Assay results: patent publication US11298402B2, “Lysosomal degradation of lipids and proteins and method of use thereof” (University of Ottawa, priority 2015, dated 2022)

B1: FYCO1: Rab7 effector, anterograde motor adaptor, overexpressed GFP-tagged from plasmid (protein, UniProt Q9BQS8 2-1478, looked up)
FYVE and coiled-coil …: ASTNAESQLQRIIRDLQDAVTELSKEFQEAGEPITDDSTSLHKFSYKLEYLLQFDQKEKATLLGNKKDYWDYFCACLAKVKGANDGIRFVKSISELRTSLGKGRAFIRYSLVHQRLADTLQQCFMNTKVTSDWYYARSPFLQPKLSSDIVGQLYELTEVQFDLASRGFDLDAAWPTFARRTLTTGSSAYLWKPPSRSSSMSSLVSSYLQTQEMVSNFDLNSPLNNEALEGFDEMRLELDQLEVREKQLRERMQQLDRENQELRAAVSQQGEQLQTERERGRTAAEDNVRLTCLVAELQKQWEVTQATQNTVKELQTCLQGLELGAAEKEEDYHTALRRLESMLQPLAQELEATRDSLDKKNQHLASFPGWLAMAQQKADTASDTKGRQEPIPSDAAQEMQELGEKLQALERERTKVEEVNRQQSAQLEQLVKELQLKEDARASLERLVKEMAPLQEELSGKGQEADQLWRRLQELLAHTSSWEEELAELRREKKQQQEEKELLEQEVRSLTRQLQFLETQLAQVSQHVSDLEEQKKQLIQDKDHLSQQVGMLERLAGPPGPELPVAGEKNEALVPVNSSLQEAWGKPEEEQRGLQEAQLDDTKVQEGSQEEELRQANRELEKELQNVVGRNQLLEGKLQALQADYQALQQRESAIQGSLASLEAEQASIRHLGDQMEASLLAVRKAKEAMKAQMAEKEAILQSKEGECQQLREEVEQCQQLAEARHRELRALESQCQQQTQLIEVLTAEKGQQGVGPPTDNEARELAAQLALSQAQLEVHQGEVQRLQAQVVDLQAKMRAALDDQDKVQSQLSMAEAVLREHKTLVQQLKEQNEALNRAHVQELLQCSEREGALQEERADEAQQREEELRALQEELSQAKCSSEEAQLEHAELQEQLHRANTDTAELGIQVCALTVEKERVEEALACAVQELQDAKEAASREREGLERQVAGLQQEKESLQEKLKAAKAAAGSLPGLQAQLAQAEQRAQSLQEAAHQELNTLKFQLSAEIMDYQSRLKNAGEECKSLRGQLEEQGRQLQAAEEAVEKLKATQADMGEKLSCTSNHLAECQAAMLRKDKEGAALREDLERTQKELEKATTKIQEYYNKLCQEVTNRERNDQKMLADLDDLNRTKKYLEERLIELLRDKDALWQKSDALEFQQKLSAEERWLGDTEANHCLDCKREFSWMVRRHHCRICGRIFCYYCCNNYVLSKHGGKKERCCRACFQKLSEGPGSPDSSGSGTSQGEPSPALSPASPGPQATGGQGANTDYRPPDDAVFDIITDEELCQIQESGSSLPETPTETDSLDPNAAEQDTTSTSLTPEDTEDMPVGQDSEICLLKSGELMIKVPLTVDEIASFGEGSRELFVRSSTYSLIPITVAEAGLTISWVFSSDPKSISFSVVFQEAEDTPLDQCKVLIPTTRCNSHKENIQGQLKVRTPGIYMLIFDNTFSRFVSKKVFYHLTVDRPVIYDGSDFL
modifications: GFP tag
B2: Vps41: HOPS subunit overexpressed from plasmid (GFP-tagged) (protein)
chain: MAEAEEQETESLEESTDESEEESEEEPKLKYERLSNGVTEILQKDAASCMTVHDKFLALGTHYGKVYLLDVQGNITQKFDVSPVKINQISLDESGEHMGVCSEDGKLQVFGLYSGEEFHETFDCPIKIVAVHPQFVRSSCKQFVTGGKKLLLFERTWMNRWKSSVLHEGEGNIRSVKWRGHLIAWANNMGVKIFDITSKQRITNVPRDDISLRPDMYPCSLCWKDAVTLIIGWGTSIKICSVKERHASEMRDLPSRYVEIVSQFETEFYISGLAPLCDQLVVLSYVKEVSEKTEREYCARPRLDIIQPLPETCEEISSDALTVRGFQENECRDYHLEYSEGESLFYVVSPRDVVVAKERDQDDHIDWLLEKKKYEEALMAAEISHRNIKRHKILEIGLAYVNHLVERGEYDMAARKCQKILGKNASLWEYEVYKFKEIGQLKAISPYLPRGDPVLKPLIYEMILHEFLESDYEGFATLIREWPGDLYNNSVIVQAVRDHLKKDSQNKTLLKTLAELYTYDKNYGNALEIYLTLRHKDVFQLIHKHNLFSSIKDKIVLLMDFDSEKAVDMLLDNEDKISIKKVVEELEDRPELQHVYLHKLFKRDHHKGQRYHEKQISLYAEYDRPNLLPFLRDSTHCPLEKALEICQQRNFVEETVYLLSRMGNSRSALKMIMEELHDVDKAIEFAKEQDDGELWEDLILYSIDKPPFITGLLNNIGTHVDPILLIHRIKEGMEIPNLRDSLVKILQDYNLQILLREGCKKILVADSLSLLKKMHRTQMKGVLVDEENICESCLSPILPTDAAKPFSVVVFHCRHMFHKECLPMPSLNAPAQYCNICSAKNRGPGSAILEMKK
B3: RILP: Rab7 effector, retrograde motor adaptor, overexpressed GFP-tagged from plasmid (protein, UniProt Q96NA2 1-401, looked up)
Rab-interacting lysosomal …: MEPRRAAPGVPGWGSREAAGSASAAELVYHLAGALGTELQDLARRFGPEAAAGLVPLVVRALELLEQAAVGPAPDSLQVSAQPAEQELRRLREENERLRRELRAGPQEERALLRQLKEVTDRQRDELRAHNRDLRQRGQETEALQEQLQRLLLVNAELRHKLAAMQTQLRAAQDRERERQQPGEAATPQAKERARGQAGRPGHQHGQEPEWATAGAGAPGNPEDPAEAAQQLGRPSEAGQCRFSREEFEQILQERNELKAKVFLLKEELAYFQRELLTDHRVPGLLLEAMKVAVRKQRKKIKAKMLGTPEEAESSEDEAGPWILLSDDKGDHPPPPESKIQSFFGLWYRGKAESSEDETSSPAPSKLGGEEEAQPQSPAPDPPCSALHEHLCLGASAAPEA
modifications: GFP tag

What was measured:
[1] = tested on: McA-RH7777 cells stably expressing human apoB-100 and human apoC-III (A18-C3); assay type: cell-based; conditions: for effect on EPA-induced lipid degradation (CLD turnover): cells silenced, transfected or pre-treated, then EPA 0.4 mM, 6 h
Experimental: (§1) In certain non-limiting examples described herein, McA-RH7777 cells stably expressing human apoB-100 and human apoC-III (designated A18-C3) were used for the studies. […] In addition, these studies, particularly those concerning EPA- or DHA-triggered lysosomal motility and CLD degradation, were also performed using primary rat hepatocytes. Transfection of plasmids encoding proteins of interest, or transfection of siRNA specific for silencing target gene expression, was achieved using the FuGENE HP Extreme reagent (Roche). Representative gene silencing siRNA sequences, which are not meant to be limiting, are described in Table 1, and plasmids encoding proteins of interest are described in Table 2. The effectiveness of siRNA silencing was verified by Western-blotting of cellular content of the target proteins, and by intracellular localization assay using siRNA-Tracker (Mirus Bioscience). Twenty-four h after plasmid transfection, or 48 h after siRNA transfection, the cells were cultured in lipid-rich media containing fetal bovine serum (20%) and OA (0.4 mM). The lipid-laden cells were switched to fresh media supplemented with OA or EPA (0.4 mM). In live imaging experiments, LipidTOX Red (Life Technologies) and LysoTracker (Life Technologies) were added to media prior to EPA treatment, to visualize lipid droplets and lysosomes, respectively. For visualizing peroxisomes, Peroxisome-GFP (Invitrogen) was introduced to the cells 24 h prior to experiments. Quantification of cell lipid contents was achieved either by direct mass measurement (HPTLC) and counting the number of lipid droplets using Image J Lipid Droplet Counter Plug-In, or indirectly by Western blot analysis of cellular content of ADRP. Secretion of apoB and TG-rich lipoprotein was determined by Western blot analysis and metabolic labeling. Mitochondrial β-oxidation was measured using MitoSOX Red (Life Technologies) in situ. Autophagic flux was determined by using Cyto-ID assay (Enzo Life Science) and by monitoring GFP-LC3 clustering in situ. Interaction of Arl8b and subunits of the HOPS complex was determined in situ by the proximity ligation assay (Olink Biosience). Cytoplasmic pH was measured using the cytosolic pHrodo indicator reagent (Invitrogen). Live imaging of fluorescent-tagged proteins was performed 1 h post-EPA treatment. Cells were also collected at the time of EPA treatment for transmission EM and tomography, as well as immuno-EM. For movies, cells were imaged at 60 sec intervals every 5 min, for a total of 30 min.
The A18-C3 cells were cultured in DMEM (Invitrogen) supplemented with fetal bovine serum (20%), penicillin (50 U/mL), streptomycin (50 μg/mL, Invitrogen) and Geneticin/G418 (500 μg/mL, Gibco) at 37° C. in 5% CO2. Transfection was conducted when cells were 60-70% confluence. Appropriate plasmids were mixed with FuGENE HP extreme reagent (Roche Diagnostic), according to manufacturer's protocol, and incubated for 30 min. Twenty-four h after transfection, cells were switched to lipid-rich media containing OA (0.4 mM) for additional 16 h prior to imaging and biochemical analysis. In silencing experiments, appropriate siRNAs were transfected into cells using the X-treme GENE siRNA regent (Roche Diagnostic). Localization of siRNA in transfected cells in situ was carried out using the Cy5 Label IT-siRNA Tracker (Minis Bioscience #7213) according to manufacturer's protocol. Forty-eight h after transfection, cells were switched to lipid-rich media containing OA (0.4 mM) for additional 16 h prior to imaging and biochemical analysis.
Quantification of lipid droplets was carried out using confocal and differential interface contrast (DIC) microscopy. Lipid droplets were stained with LipidTOX Red (Invitrogen) before adding OA or EPA. All images were visualized using a 63× oil immersion objective lens. Z-series stacks were acquired with 0.2 μm steps. […]

[2] = tested on: McA-RH7777 cells (A18-C3); experiment: Live imaging of lysosomal motility and lysosome-CLD interaction (kiss-and-run); assay type: cell-based, rat; conditions: cells silenced, transfected or pre-treated (15 min) before EPA
Experimental: as §1
Cells were grown on 35-mm glass bottom dishes (Ibidi GmbH München, Germany) for 16 h in DMEM supplemented with FBS (20%) and OA (0.4 mM). Cells were imaged using a Zeiss 510 META laser scanning confocal microscope with a heated CO2-controlled stage (5% CO2 at 37° C.). Images were captured at a frame-rate of 30 frame/sec using a 63×. N.A.1.4 objective. Recommended laser lines and filter combinations were used for each dye. For visualization of lipid droplets, lysosomes, mitochondria, and mitochondrial β-oxidation, the respective reagents LipidTOX Red (Invitrogen), LysoTracker (Life Technology), MitoTracker (Life Technology), MitoSox Red (Invitrogen), and Peroxisome-GFP BacMam2.0 (Invitrogen) were introduced into the cells, according to manufacturers' recommendations, prior to EPA treatment.
Cells were cultured with lipid-rich media containing OA (0.4 mM) for 16 h. The lipid-laden cells were switched to fresh media containing EPA (0.4 mM) for 1 h, and the lysosomal movement towards lipid droplets was recorded by time-lapse microscopy. Fluorescent intensity of lysosomal signals at the periphery of selected individual lipid droplet was measured using Image J Live Intensity Profiler Plug-in^31-33 over a period of 40 sec. Quantification for each condition was carried out for 60 individual lipid droplets from three independent experiments. Constant threshold was applied to all of the images in each experiment.

Row | Molecule | effect on EPA-induced lipid degradation (CLD turnover) [1] | effect on EPA-triggered lysosomal motility / lysosomal interaction with CLD [2] | effect on lipid degradation when co-expressed with Arl8b^WT, Arl8b^Q75L or Arl8b^T34N ([1]; co-transfected cells, 6 h post-OA or -EPA)
1 | Cl.N [NH4Cl, reference compound] | inhibited |  | 
2 | CCC/C=C/C/C=C/C=C/C=N/NN=O [Triacsin C, reference compound] | inhibited EPA-induced lipid degradation | blocked | 
3 | COC(=O)Nc1nc2ccc(C(=O)c3cccs3)cc2[nH]1 [nocodazole, reference compound] | blocked EPA-induced lipid degradation | blocks EPA-induced lysosomal movement | 
4 | B1 | adversely blocked EPA-induced lipid degradation | blocks EPA-triggered lysosomal interaction with LDs | 
5 | B2 | block lipid degradation | enhanced lysosomal-CLD interaction | invariably blocks lipid degradation
6 | B3 | adversely blocked EPA-induced lipid degradation | blocks EPA-triggered lysosomal interaction with LDs | 
